Test results as given in PMC7655986.

Molecular target: T1, recombinant Fc-construct of the Dsg2 extracellular domain, Q14126
T1 chain: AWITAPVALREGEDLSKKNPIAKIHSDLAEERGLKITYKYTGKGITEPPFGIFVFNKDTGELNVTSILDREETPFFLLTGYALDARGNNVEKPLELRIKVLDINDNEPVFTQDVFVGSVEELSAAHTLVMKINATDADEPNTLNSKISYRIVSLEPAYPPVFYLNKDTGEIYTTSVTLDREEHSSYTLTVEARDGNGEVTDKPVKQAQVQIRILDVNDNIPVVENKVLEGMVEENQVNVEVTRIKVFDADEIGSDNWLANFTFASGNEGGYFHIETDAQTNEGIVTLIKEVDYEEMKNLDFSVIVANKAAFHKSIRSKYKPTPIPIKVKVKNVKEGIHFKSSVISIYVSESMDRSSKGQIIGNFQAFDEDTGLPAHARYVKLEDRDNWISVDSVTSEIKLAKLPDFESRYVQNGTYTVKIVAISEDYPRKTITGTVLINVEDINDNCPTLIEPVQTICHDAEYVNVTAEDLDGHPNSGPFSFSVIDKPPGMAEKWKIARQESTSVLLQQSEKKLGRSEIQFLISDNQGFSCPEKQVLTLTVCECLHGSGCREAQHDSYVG
Assay: atomic force microscopy (cell-free single-molecule force measurements); Dsg-Fc constructs (0.15 mg/ml) linked by a PEG linker to the cantilever tip and to mica sheets; Force Mapping mode; binding frequency and unbinding force; pulling speeds from 1 to 20 µm/s and modified Bells equation for the bond lifetime; 5 mM EGTA for 1 h lowered the binding frequency
Details: remark: other sources report otherwise

B1: recombinant Fc-construct of the Dsg2 extracellular domain, Q14126 50-609 (Fc fusion)
chain: T1 chain
Question: Which bond lifetime does the source give for B1 here?
Answer: 0.12 s
